From US20210009686A1

What was measured:
[1] = biological target: claudin 18.1 (CLDN18.1) (human) (UniProt P56856); test: FACS, hybridoma supernatant on HEK293-CLDN18.1
[2] = biological target: claudin 18.1 (CLDN18.1) (human) (UniProt P56856); test: in-cell ELISA, hybridoma supernatant on HEK293-CLDN18.1 cells

Chain of claudin 18.1 (CLDN18.1) (human) (P56856 whole entry): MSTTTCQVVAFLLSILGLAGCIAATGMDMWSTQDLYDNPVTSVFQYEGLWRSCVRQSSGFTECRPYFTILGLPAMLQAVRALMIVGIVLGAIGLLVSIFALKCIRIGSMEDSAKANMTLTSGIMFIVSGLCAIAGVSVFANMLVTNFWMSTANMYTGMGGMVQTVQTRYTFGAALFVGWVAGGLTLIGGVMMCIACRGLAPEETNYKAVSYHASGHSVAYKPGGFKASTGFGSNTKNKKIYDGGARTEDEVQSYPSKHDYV

B1: hybridoma clone 10-L9-A (antibody, V domains shown)
VH: EVQLVESGGGLVKPGGSRKLSCAASGFTFSDYGMHWVRQAPEKGLEWIAYINSGSSTIYYADTVKGRFTISRDNAKNTLFLQMTSLRSEDTAMFYCARFARGNVLDYWGQGTSVTVSS
VL: DIVMTQSPSSLTVTAGEKVTMSCRSSQSLLNSGNQRNYLTWYQQKPGHPPKLLIYWASTRESGVPDRFTGSGSGTDFTLTISGVQAEDLAVYYCQNGYSYPLTFGAGTKLEVK
[1]
  MFI: 14300
[2]
  OD450/µg IgG: 0.62 OD450/µg IgG
